Test results as given in PMC9481740 (The Journal of Cell Biology, 2022).

T1: ^mChSpindly^ΔRV (human, UniProt Q96EA4 1-605, ΔRV (residues R154–V155))
T1 construct: also called ^mChSpindly^∆RV; source: E. coli BL21 CodonPlus, purified (HisTrap, Resource Q, Superdex 200); not shown: mCherry, N-terminal, kept
T1 sequence (looked up): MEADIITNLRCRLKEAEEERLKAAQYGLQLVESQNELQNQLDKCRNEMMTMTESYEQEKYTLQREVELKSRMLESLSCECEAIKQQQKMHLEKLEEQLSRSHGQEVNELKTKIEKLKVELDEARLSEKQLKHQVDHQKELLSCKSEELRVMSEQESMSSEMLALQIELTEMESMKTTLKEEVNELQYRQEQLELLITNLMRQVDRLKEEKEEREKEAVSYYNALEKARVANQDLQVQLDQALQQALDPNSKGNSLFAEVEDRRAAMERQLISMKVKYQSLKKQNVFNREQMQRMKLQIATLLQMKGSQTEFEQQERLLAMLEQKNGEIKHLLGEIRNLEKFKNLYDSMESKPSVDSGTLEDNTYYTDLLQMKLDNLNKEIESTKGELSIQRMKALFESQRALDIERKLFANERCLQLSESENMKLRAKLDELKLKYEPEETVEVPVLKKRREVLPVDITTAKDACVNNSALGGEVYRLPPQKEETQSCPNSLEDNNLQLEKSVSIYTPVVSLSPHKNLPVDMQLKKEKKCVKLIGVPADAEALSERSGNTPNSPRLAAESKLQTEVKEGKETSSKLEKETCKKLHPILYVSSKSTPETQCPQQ

T2: ^mChSpindly^CC2* (R295E-K297E) (human, UniProt Q96EA4 1-605, R295E | K297E)
T2 construct: source: E. coli BL21 CodonPlus, purified (HisTrap, Resource Q, Superdex 200); not shown: mCherry, N-terminal, kept
T2 sequence (looked up): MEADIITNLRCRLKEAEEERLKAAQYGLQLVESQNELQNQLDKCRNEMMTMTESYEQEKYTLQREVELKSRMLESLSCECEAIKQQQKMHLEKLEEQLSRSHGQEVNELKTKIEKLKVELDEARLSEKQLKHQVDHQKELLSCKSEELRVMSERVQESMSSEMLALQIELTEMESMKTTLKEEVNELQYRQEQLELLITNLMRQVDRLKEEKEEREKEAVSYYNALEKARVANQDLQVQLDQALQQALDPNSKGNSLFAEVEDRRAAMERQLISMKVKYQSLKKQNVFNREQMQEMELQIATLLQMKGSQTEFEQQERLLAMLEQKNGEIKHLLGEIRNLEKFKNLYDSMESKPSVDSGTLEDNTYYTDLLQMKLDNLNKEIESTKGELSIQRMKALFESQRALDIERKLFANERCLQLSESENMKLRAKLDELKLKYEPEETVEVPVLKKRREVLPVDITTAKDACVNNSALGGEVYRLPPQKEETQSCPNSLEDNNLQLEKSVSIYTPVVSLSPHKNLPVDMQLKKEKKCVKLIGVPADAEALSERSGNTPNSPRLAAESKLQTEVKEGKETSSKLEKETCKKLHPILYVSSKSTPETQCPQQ

T3: mCherry-tagged full-length Spindly (^mChSpindly^FL) (human, UniProt Q96EA4 1-605)
T3 construct: also called ^mChSpindly^WT; Spindly^WT; source: E. coli BL21 CodonPlus, purified (HisTrap, Resource Q, Superdex 200); not shown: mCherry, N-terminal, kept
T3 sequence (looked up): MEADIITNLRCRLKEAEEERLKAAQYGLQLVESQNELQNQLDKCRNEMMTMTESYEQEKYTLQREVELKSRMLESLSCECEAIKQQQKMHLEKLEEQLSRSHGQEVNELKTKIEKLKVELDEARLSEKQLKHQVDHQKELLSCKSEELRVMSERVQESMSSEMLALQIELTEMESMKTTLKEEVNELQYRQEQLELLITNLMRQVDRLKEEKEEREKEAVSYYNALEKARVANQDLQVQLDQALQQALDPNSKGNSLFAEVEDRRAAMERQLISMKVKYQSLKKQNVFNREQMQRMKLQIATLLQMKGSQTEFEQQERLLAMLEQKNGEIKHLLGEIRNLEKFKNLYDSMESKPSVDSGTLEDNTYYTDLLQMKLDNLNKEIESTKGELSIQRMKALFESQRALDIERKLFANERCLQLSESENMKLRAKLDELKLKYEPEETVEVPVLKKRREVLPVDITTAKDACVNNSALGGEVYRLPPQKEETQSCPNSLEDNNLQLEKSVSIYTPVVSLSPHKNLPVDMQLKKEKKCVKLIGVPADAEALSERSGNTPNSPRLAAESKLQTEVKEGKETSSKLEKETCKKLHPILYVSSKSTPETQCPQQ

B1: pre-farnesylated ^mChSpindly^CC2* (natural protein, human, UniProt Q96EA4 1-605, looked up)
chain: MEADIITNLRCRLKEAEEERLKAAQYGLQLVESQNELQNQLDKCRNEMMTMTESYEQEKYTLQREVELKSRMLESLSCECEAIKQQQKMHLEKLEEQLSRSHGQEVNELKTKIEKLKVELDEARLSEKQLKHQVDHQKELLSCKSEELRVMSERVQESMSSEMLALQIELTEMESMKTTLKEEVNELQYRQEQLELLITNLMRQVDRLKEEKEEREKEAVSYYNALEKARVANQDLQVQLDQALQQALDPNSKGNSLFAEVEDRRAAMERQLISMKVKYQSLKKQNVFNREQMQEMELQIATLLQMKGSQTEFEQQERLLAMLEQKNGEIKHLLGEIRNLEKFKNLYDSMESKPSVDSGTLEDNTYYTDLLQMKLDNLNKEIESTKGELSIQRMKALFESQRALDIERKLFANERCLQLSESENMKLRAKLDELKLKYEPEETVEVPVLKKRREVLPVDITTAKDACVNNSALGGEVYRLPPQKEETQSCPNSLEDNNLQLEKSVSIYTPVVSLSPHKNLPVDMQLKKEKKCVKLIGVPADAEALSERSGNTPNSPRLAAESKLQTEVKEGKETSSKLEKETCKKLHPILYVSSKSTPETQCPQQ
modifications: farnesylated (residue not given)
notes: source: E. coli BL21 CodonPlus, purified; farnesylated in vitro with farnesyltransferase; not shown: mCherry, N-terminal, kept
B2: GST-LIC2 (natural protein, human, UniProt O43237 1-492, looked up)
chain: MAPVGVEKKLLLGPNGPAVAAAGDLTSEEEEGQSLWSSILSEVSTRARSKLPSGKNILVFGEDGSGKTTLMTKLQGAEHGKKGRGLEYLYLSVHDEDRDDHTRCNVWILDGDLYHKGLLKFAVSAESLPETLVIFVADMSRPWTVMESLQKWASVLREHIDKMKIPPEKMRELERKFVKDFQDYMEPEEGCQGSPQRRGPLTSGSDEENVALPLGDNVLTHNLGIPVLVVCTKCDAVSVLEKEHDYRDEHLDFIQSHLRRFCLQYGAALIYTSVKEEKNLDLLYKYIVHKTYGFHFTTPALVVEKDAVFIPAGWDNEKKIAILHENFTTVKPEDAYEDFIVKPPVRKLVHDKELAAEDEQVFLMKQQSLLAKQPATPTRASESPARGPSGSPRTQGRGGPASVPSSSPGTSVKKPDPNIKNNAASEGVLASFFNSLLSKKTGSPGSPGAGGVQSTAKKSGQKTVLSNVQEELDRMTRKPDSMVTNSSTENEA
notes: Dynein light intermediate chain 2 (LIC2), human; GST is TEV-cleavable but was used as the handle on glutathione beads; also called GST-tagged LIC2; source: TnAO38 insect cells (baculovirus), purified (GSTrap, Superdex 200); not shown: GST, N-terminal, kept

Legend:
Conditions in all cases: both partners purified
[1] = target: T4, ROD–Zwilch–ZW10 (RZZ) complex (UniProt P50748 1-2209; Q9H900 1-591; O43264 1-779); experiment: SEC; Superose 6 5/150; RZZ 2 µM, pre-farnesylated mCh-Spindly construct 6 µM
T4 construct: ROD; Zwilch; ZW10; also called mCherry-RZZ; copies: + +

^mChSpindly^ΔRV = target: T1, ^mChSpindly^ΔRV; experiment: pull-down; GST or GST-LIC2 bait 4 µM on glutathione beads, mCh-Spindly preys 8 µM, 4°C 1 h, Spindly buffer; eluted with glutathione; mCherry fluorescence of the gel band quantified against Spindly FL
[2] = target: T2, ^mChSpindly^CC2* (R295E-K297E); experiment: as above
[3] = target: T3, mCherry-tagged full-length Spindly …; experiment: as above

T4 sequence (P50748 whole entry, chain 1 of 3): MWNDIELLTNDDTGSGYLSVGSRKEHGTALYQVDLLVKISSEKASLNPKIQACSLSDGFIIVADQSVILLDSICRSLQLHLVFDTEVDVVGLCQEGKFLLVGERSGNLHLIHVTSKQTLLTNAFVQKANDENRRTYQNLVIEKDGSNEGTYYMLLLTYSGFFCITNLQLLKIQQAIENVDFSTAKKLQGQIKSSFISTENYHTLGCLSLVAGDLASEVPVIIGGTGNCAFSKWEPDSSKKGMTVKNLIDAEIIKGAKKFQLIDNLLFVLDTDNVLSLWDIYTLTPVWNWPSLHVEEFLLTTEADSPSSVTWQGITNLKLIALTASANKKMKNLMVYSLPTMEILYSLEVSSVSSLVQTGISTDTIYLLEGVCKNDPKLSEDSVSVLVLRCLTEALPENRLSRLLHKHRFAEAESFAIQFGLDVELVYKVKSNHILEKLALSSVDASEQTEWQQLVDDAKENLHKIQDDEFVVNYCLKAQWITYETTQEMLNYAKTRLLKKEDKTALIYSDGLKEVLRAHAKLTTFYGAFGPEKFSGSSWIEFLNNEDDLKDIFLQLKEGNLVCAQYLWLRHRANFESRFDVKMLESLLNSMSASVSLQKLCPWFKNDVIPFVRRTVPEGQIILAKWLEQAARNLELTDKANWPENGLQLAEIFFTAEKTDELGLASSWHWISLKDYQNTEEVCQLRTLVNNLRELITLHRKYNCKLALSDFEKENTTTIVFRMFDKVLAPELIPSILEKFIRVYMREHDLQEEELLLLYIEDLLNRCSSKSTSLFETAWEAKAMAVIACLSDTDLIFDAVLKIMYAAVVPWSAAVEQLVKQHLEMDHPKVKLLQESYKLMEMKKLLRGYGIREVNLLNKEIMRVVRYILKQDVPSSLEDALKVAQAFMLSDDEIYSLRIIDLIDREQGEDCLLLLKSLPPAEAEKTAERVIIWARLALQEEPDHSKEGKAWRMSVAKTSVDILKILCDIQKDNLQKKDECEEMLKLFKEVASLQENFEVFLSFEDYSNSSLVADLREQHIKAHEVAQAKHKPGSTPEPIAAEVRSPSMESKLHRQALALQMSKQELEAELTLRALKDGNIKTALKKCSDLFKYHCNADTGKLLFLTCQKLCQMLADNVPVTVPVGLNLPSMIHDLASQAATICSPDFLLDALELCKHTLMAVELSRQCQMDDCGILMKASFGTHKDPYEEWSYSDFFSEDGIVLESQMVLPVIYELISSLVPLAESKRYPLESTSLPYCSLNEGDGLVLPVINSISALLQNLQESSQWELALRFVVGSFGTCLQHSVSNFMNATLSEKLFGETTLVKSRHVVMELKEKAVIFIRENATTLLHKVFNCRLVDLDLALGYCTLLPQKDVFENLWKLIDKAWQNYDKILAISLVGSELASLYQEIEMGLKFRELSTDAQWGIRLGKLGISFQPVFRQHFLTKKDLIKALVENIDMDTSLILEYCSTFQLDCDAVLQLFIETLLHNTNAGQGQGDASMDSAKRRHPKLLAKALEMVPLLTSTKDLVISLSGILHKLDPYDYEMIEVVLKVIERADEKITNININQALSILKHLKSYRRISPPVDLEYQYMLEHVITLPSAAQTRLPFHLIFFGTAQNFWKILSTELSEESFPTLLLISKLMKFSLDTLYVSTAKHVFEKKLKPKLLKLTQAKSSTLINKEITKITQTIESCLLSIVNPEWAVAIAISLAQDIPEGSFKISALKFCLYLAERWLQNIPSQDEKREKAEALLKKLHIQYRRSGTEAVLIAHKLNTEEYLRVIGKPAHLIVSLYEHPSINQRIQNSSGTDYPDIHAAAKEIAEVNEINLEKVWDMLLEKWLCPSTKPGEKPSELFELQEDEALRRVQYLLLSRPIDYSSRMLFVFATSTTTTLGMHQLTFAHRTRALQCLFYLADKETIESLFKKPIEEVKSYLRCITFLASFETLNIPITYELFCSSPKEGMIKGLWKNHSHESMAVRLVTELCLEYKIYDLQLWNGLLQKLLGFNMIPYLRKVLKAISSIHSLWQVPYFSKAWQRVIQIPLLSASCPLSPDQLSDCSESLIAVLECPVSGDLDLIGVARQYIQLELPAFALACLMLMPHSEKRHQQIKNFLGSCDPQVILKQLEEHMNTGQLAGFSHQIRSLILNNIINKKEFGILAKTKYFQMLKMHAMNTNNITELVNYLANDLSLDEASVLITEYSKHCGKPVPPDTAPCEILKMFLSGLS
T4 sequence (Q9H900 whole entry, chain 2 of 3): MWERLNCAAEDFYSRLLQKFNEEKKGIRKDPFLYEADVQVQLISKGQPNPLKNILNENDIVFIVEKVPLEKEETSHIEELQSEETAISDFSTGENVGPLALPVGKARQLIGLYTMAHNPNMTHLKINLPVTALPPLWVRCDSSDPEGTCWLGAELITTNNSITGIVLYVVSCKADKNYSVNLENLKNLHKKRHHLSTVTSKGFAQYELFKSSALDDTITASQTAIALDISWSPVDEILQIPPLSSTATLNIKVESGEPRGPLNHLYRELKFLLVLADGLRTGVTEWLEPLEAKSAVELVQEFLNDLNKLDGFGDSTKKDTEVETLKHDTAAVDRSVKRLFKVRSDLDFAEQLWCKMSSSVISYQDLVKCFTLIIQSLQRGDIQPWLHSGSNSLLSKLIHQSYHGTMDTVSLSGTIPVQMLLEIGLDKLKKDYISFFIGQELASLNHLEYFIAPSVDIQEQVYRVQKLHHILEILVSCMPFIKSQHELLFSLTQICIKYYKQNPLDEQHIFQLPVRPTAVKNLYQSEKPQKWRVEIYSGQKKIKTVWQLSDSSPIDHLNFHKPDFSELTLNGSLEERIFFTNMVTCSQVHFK
T4 sequence (O43264 whole entry, chain 3 of 3): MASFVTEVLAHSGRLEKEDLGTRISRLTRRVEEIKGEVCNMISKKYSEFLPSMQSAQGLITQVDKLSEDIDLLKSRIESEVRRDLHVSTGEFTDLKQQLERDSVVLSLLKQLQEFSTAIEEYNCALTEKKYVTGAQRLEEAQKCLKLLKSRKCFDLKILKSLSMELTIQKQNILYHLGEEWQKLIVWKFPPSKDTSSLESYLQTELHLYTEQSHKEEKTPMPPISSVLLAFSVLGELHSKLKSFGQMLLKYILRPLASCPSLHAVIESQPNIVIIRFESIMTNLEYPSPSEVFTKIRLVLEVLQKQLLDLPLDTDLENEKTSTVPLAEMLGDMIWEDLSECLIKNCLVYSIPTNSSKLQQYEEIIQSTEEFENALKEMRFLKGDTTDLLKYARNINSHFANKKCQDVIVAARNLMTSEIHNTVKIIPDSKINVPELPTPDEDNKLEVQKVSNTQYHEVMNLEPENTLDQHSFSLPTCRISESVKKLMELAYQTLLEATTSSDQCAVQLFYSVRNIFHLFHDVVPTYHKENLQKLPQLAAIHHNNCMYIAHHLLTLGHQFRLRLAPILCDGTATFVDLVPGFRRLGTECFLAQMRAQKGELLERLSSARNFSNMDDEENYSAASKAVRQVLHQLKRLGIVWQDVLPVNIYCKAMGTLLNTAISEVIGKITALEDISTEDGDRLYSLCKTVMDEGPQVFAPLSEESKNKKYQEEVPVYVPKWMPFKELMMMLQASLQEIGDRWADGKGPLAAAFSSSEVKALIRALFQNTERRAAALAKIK

Row | Binder | binding result [1] | binding result (^mChSpindly^ΔRV) | binding result [2] | binding result [3]
1 | B1 | binds | – | – | –
2 | B2 | – | binds | binds | binds
